We go through one substance from paper PMC2148140.

The target of this assay is human Erd2p (KDEL receptor) (human) (UniProt P24390). As to the kind of experiment: radioligand binding.
UniProt P24390, sequence (P24390 whole entry): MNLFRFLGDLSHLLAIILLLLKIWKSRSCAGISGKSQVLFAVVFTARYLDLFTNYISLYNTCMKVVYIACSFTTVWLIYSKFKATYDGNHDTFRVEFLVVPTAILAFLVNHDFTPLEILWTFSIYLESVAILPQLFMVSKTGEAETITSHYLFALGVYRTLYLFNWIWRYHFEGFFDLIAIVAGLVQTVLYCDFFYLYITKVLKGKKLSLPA

For “cholera toxin A subunit (wild-type CTX-A), 125I-labelled (natural protein)”, the binding at pH 6 as percent of the binding at pH 5 turned out to be 60%.
